# Results published in patent publication US7648964B2, “Use of lacritin in promoting ocular cell survival” (University of Virginia Patent Foundation, priority 2004, dated 2010).
# B1: lacritin: recombinant human lacritin from E. coli; mature 119 residue fragment (SEQ ID NO:10) of native lacritin SEQ ID NO:4 (protein, listed as Homo sapiens)
# chain: EDASSDSTGADPAQEAGTSKPNEEISGPAEPASPPETTTTAQETSAAAVQGTAKVTSSRQELNPLKSIVEKSILLTEQALAKAGKGMHGGVPGGKQFIENGSEFAQKLLKKFSLLKPWA
# Tests used:
# caspase-3 = experiment: Caspase-3 activity in human corneal epithelial cells treated with TNF; assay type: cell-based; settings: FIG. 11
# Experimental: FIG. 11 graphically illustrates the ability of lacritin and fragments of lacritin to inhibit the ability of tumor necrosis factor (TNF) to regulate caspase-3 activity in human corneal epithelial cells. Go6976 is an inhibitor of protein kinase C. The ordinate represents relative fluorescence units. White bars indicate 3 hours and diagonally-hatched bars indicate 6 hours.
# Lacritin-induced proliferation and calcium signaling was studied in the human corneal epithelial (HCE) cell line. HCE cells were grown at 37° C. in DMEM F/12 supplemented with 10% FBS and 50 μg/ml gentamicin. Each experiment was done in a dose- and time-dependent manner using TNF-α (5-20 ng/ml) and lacritin (1-10 nM). Cell viability was measured spectrophotometrically at an absorbance of 570 nm using the MTT assay. Caspase-8 activity was detected fluorometrically by measuring cleavage of the fluorogenic substrate IETD-pNA at an excitation wavelength of 405 nm. Lacritin-induced cell proliferation was studied by H3-thymidine incorporation and via fluorescence-based detection of PKC, PLC and cAMP. Calcium signaling was detected by confocal microscopy of Fluo-4 loaded cells.
# [1] = system: human submandibular ductal ('HSG') cells; experiment: HSG ductal cell number in serum-free medium after four days; assay type: cell-based; settings: BSA 10 ng/ml control
# Experimental: FIGS. 2A and 2B represent lacritin-induced proliferation and tyrosine phosphorylation. FIG. 2A is a graphic representation of the number of human salivary gland (HSG) cells was determined four days after administering various amounts of lacritin (0 to 10 ng/ml of lacritin) to HSG cells in serum-free medium. FIG. 2B is a bar graph representing the proliferation of HSG cells upon administration of BSA (lane 1; 10 ng/ml) or serum (lane 2; 10%) was added for the same period of time. All experiments were performed on laminin-1-(0.05 μM) coated wells.
# Quiescent human submandibular ductal (‘HSG’) cells were cultured in serum-free media containing increasing amounts of lacritin and cell proliferation was studied.
# MUC16 = MUC16 blot of human corneal epithelial cells; assay type: cell-based; settings: 10 nM
# Description: MUC16 is an important mucin on the ocular surface. Mucin contributes to the tear film, is important for wetting the ocular surface, and is reduced in Sjogren's syndrome patients. […] Cells were blotted for MUC16.
# Leydig (TM4) cells = experiment: 3H-thymidine uptake mitogenesis assay; assay type: cell-based, mouse
# Experimental: (§1) For phosphotyrosine blotting and mitogenesis assays, cells in serum-containing media were seeded overnight in 24-well plates at a density of 0.5×10^5 cells/mm^2 corresponding to 20-30% confluency after cell attachment, incubated in serum-free media without supplements for 24 h (phosphotyrosine) or washed with serum-free media without supplements three times (mitogenesis) and incubated with lacritin (1-1000 nM), or positive controls EGF (1.6 nM) and 10% fetal bovine serum, or negative controls bovine serum albumin or no additive in serum-free media without supplements for the indicated times (phosphotyrosine) or 30 h (mitogenesis). […] After washing, bound antibodies were detected with peroxidase-labeled secondary antibody and ECL. […] Incorporation was stopped with ice-cold phosphate buffered saline and followed by addition of cold and then room temperature trichloracetic acid (10%) for 10 min each, washing of cells with phosphate buffered saline, solubilization with 1 N sodium hydroxide, neutralization with 1 N hydrochloric acid, addition of scintillation fluid and then quantitation in a scintillation counter. […] Seventy-two hours post-transfection, mitogenesis was assessed by co-addition of 10 […] lacritin and [^3H]-thymidine (2 mCi/ml) (Amersham, Piscataway N.J.) for 24 hrs. […]
# Sertoli (TM3) cells = experiment: 3H-thymidine uptake mitogenesis assay; assay type: cell-based, mouse
# Experimental: as §1
# 48 kDa band in HSG cells = experiment: Tyrosine phosphorylation of 48 kDa band, HSG cells; assay type: cell-based, human
# Experimental: (§2) Freshly isolated rat lacrimal acinar cells, and HSG (human salivary gland) ductal and HCE (human corneal epithelial) cell lines were used to study lacritin function. For secretion studies, rat acinar cells were plated serum-free overnight on wells co-coated with 0.05 μM laminin 1 (to ensure adhesion) and 0 to 20 μM lacritin, or alternatively with laminin-1 (0.05 μM) and treated the next day with serum-free medium containing 0 to 162 ng/ml of soluble lacritin for four hours. Unstimulated and stimulated (carbachol 10^−4 M/VIP 10^−8 M) secretions were then collected, assessed (peroxidase assay) and normalized to μg cellular DNA. To study tyrosine phosphorylation, overnight serum-free cultures of both rat lacrimal acinar and HSG cells were washed and treated with 10 ng/ml of soluble lacritin for 0.5, 2.5, 10, and 30 minutes. Py(20) anti-phosphotyrosine antibody immunoprecipitation of cell lysates was then examined in Western blots of 7% SDS PAGE gels using Py(20) and ECL for detection. […] Using an inverted Zeiss 510 LSM for visualization, 50 second baseline images were first recorded. While the laser was running, lacritin was added (final concentration 4 and 40 ng/ml) and the response continually monitored every 786 msec for a minimum of 200 sec.
# [2] = system: tyrosine phosphorylation of phosphoproteins in HSG cells; experiment: Phosphotyrosine blotting in HSG cells; assay type: cell-based, human; settings: within the first minute
# Experimental: as §1
# [3] = system: 48 kDa band in rat lacrimal cells; experiment: Tyrosine phosphorylation of 48 kDa band, rat lacrimal cells; assay type: cell-based
# Experimental: as §2
Molecule,protection from cell death by TNF (caspase-3 activity) (caspase-3),ductal cell number relative to BSA negative control [1],MUC16 secretion (MUC16),mitogenesis (Leydig (TM4) cells),mitogenesis (Sertoli (TM3) cells),tyrosine phosphorylation of a 48 kDa band (48 kDa band in HSG cells),tyrosine phosphorylation of at least nine phosphoproteins [2],tyrosine phosphorylation of a 48 kDa band [3]
Cn1c2ccccc2c2c3c(c4c5ccccc5n(CCC#N)c4c21)CNC3=O [Go 6976],do not protect,–,–,–,–,–,–,–
B1,–,more than twofold,greatly enhanced,not mitogenic,not mitogenic,promoted the transient tyrosine phosphorylation,transient tyrosine phosphorylation,promoted the transient tyrosine phosphorylation
